B1: CER29−HPV16 E7 TCR: tandem expression cassette: CER29, T2A peptide, HPV16 E7 specific TCR; SEQ ID NO:169 (protein)
chain: MSKGLLLLWLVTELWWLYLTPAASEDTIIGFLGQPVTLPCHYLSWSQSRNSMCWGKGSCPNSKCNAELLRTDGTRIISRKSTKYTLLGKVQFGEVSLTISNTNRGDSGVYCCRIEVPGWFNDVKKNVRLELRRATTTKKPTTTTRPTTTPYVTTTTPELLPTTVMTTSVLPTTTPPQTLATTAFSTAVTTCPSTTPGSFSQETTKGSAFTTESETLPASNHSQRSMMTISTDIAVLRPTGSNPGILPSTSQLTTQKTTLTTSESLQKTTKSHQINSRQTILIIACCVGFVLMVLLFLAFLMSLLNCENSCGSSQSESDCCVAMASSCSAVTKDDSVGGTASTGNLSSSFMEEIQGYDVEFDPPLESKYECPICLMALREAVQTPCGHRFCKACIIKSIRDAGHKCPVDNEILLENQLFPDNFAKREILSLMVKCPNEGCLHKMELRHLEDHQAHCEFALMDCPQCQRPFQKFHINIHILKDCPRRQVSCDNCAASMAFEDKEIHDQNCPLANVICEYCNTILIREQMPNHYDLDCPTAPIPCTFSTFGCHEKMQRNHLARHLQENTQSHMRMLALEGGGEGRGSLLTCGDVEENPGPMAPGLLCWALLCLLGAGLVDAGVTQSPTHLIKTRGQQVTLRCSPKSGHDTVSWYQQALGQGPQFIFQYYEEEERQRGNFPDRFSGHQFPNYSSELNVNALLLGDSALYLCASSLGWRGGRYNEQFFGPGTRLTVLEDLRNVTPPKVSLFEPSKAEIANKQKATLVCLARGFFPDHVELSWWVNGKEVHSGVCTDPQAYKESNYSYCLSSRLRVSATFWHNPRNHFRCQVQFHGLSEEDKWPEGSPKPVTQNISAEAWGRADCGITSASYQQGVLSATILYEILLGKATLYAVLVSTLVVMAMVKRKNSRAKRSGSGATNFSLLKQAGDVEENPGPMWGVFLLYVSMKMGGTTGQNIDQPTEMTATEGAIVQINCTYQTSGFNGLFWYQQHAGEAPTFLSYNVLDGLEEKGRFSSFLSRSKGYSYLLLKELQMKDSASYLCASVDGNNRLAFGKGNQVVVIPNIQNPEPAVYQLKDPRSQDSTLCLFTDFDSQINVPKTMESGTFITDKCVLDMKAMDSKSNGAIAWSNQTSFTCQDIFKETNATYPSSDVPCDATLTEKSFETDMNLNFQNLLVIVLRILLLKVAGFNLLMTLRLWSS
modifications: CER29_T2A_HPV16_E7_TCR tandem cassette
B2: CER31−HPV16 E7 TCR: tandem expression cassette: CER31, T2A peptide, HPV16 E7 specific TCR; SEQ ID NO:170 (protein)
chain: MSKGLLLLWLVTELWWLYLTPAASEDTIIGFLGQPVTLPCHYLSWSQSRNSMCWGKGSCPNSKCNAELLRTDGTRIISRKSTKYTLLGKVQFGEVSLTISNTNRGDSGVYCCRIEVPGWFNDVKKNVRLELRRATTTKKPTTTTRPTTTPYVTTTTPELLPTTVMTTSVLPTTTPPQTLATTAFSTAVTTCPSTTPGSFSQETTKGSAFTTESETLPASNHSQRSMMTISTDIAVLRPTGSNPGILPSTSQLTTQKTTLTTSESLQKTTKSHQINSRQTILIIACCVGFVLMVLLFLAFLMESSKKMDSPGALQTNPPLKLHTDRSAGTPVFVPEQGGYKEKFVKTVEDKYKCEKCHLVLCSPKQTECGHRFCESCMAALLSSSSPKCTACQESIVKDKVFKDNCCKREILALQIYCRNESRGCAEQLMLGHLLVHLKNDCHFEELPCVRPDCKEKVLRKDLRDHVEKACKYREATCSHCKSQVPMIALQKHEDTDCPCVVVSCPHKCSVQTLLRSELSAHLSECVNAPSTCSFKRYGCVFQGTNQQIKAHEASSAVQHVNLLKEWSNSLEKKVLEGGGEGRGSLLTCGDVEENPGPMAPGLLCWALLCLLGAGLVDAGVTQSPTHLIKTRGQQVTLRCSPKSGHDTVSWYQQALGQGPQFIFQYYEEEERQRGNFPDRFSGHQFPNYSSELNVNALLLGDSALYLCASSLGWRGGRYNEQFFGPGTRLTVLEDLRNVTPPKVSLFEPSKAEIANKQKATLVCLARGFFPDHVELSWWVNGKEVHSGVCTDPQAYKESNYSYCLSSRLRVSATFWHNPRNHFRCQVQFHGLSEEDKWPEGSPKPVTQNISAEAWGRADCGITSASYQQGVLSATILYEILLGKATLYAVLVSTLVVMAMVKRKNSRAKRSGSGATNFSLLKQAGDVEENPGPMWGVFLLYVSMKMGGTTGQNIDQPTEMTATEGAIVQINCTYQTSGFNGLFWYQQHAGEAPTFLSYNVLDGLEEKGRFSSFLSRSKGYSYLLLKELQMKDSASYLCASVDGNNRLAFGKGNQVVVIPNIQNPEPAVYQLKDPRSQDSTLCLFTDFDSQINVPKTMESGTFITDKCVLDMKAMDSKSNGAIAWSNQTSFTCQDIFKETNATYPSSDVPCDATLTEKSFETDMNLNFQNLLVIVLRILLLKVAGFNLLMTLRLWSS
modifications: CER31_T2A_HPV16_E7_TCR tandem cassette
B3: CER120: Tim4 binding and transmembrane domains, TLR1 primary and DAP12 secondary signaling domains; SEQ ID NO:147 (protein)
chain: MSKGLLLLWLVTELWWLYLTPAASEDTIIGFLGQPVTLPCHYLSWSQSRNSMCWGKGSCPNSKCNAELLRTDGTRIISRKSTKYTLLGKVQFGEVSLTISNTNRGDSGVYCCRIEVPGWFNDVKKNVRLELRRATTTKKPTTTTRPTTTPYVTTTTPELLPTTVMTTSVLPTTTPPQTLATTAFSTAVTTCPSTTPGSFSQETTKGSAFTTESETLPASNHSQRSMMTISTDIAVLRPTGSNPGILPSTSQLTTQKTTLTTSESLQKTTKSHQINSRQTILIIACCVGFVLMVLLFLAFLSYLDLPWYLRMVCQWTQTRRRARNIPLEELQRNLQFHAFISYSGHDSFWVKNELLPNLEKEGMQICLHERNFVPGKSIVENIITCIEKSYKSIFVLSPNFVQSEWCHYELYFAHHNLFHEGSNSLILILLEPIPQYSIPSSYHKLKSLMARRTYLEWPKEKSKRGLFWANLRAAINIKLTEQAKKYFLGRLVPRGRGAAEAATRKQRITETESPYQELQGQRSDVYSDLNTQRPYYK
modifications: CER120 protein
B4: CER110: Tim4 binding and transmembrane domains, truncated Traf6 primary and DAP12 secondary signaling domains; SEQ ID NO:125 (protein)
chain: MSKGLLLLWLVTELWWLYLTPAASEDTIIGFLGQPVTLPCHYLSWSQSRNSMCWGKGSCPNSKCNAELLRTDGTRIISRKSTKYTLLGKVQFGEVSLTISNTNRGDSGVYCCRIEVPGWFNDVKKNVRLELRRATTTKKPTTTTRPTTTPYVTTTTPELLPTTVMTTSVLPTTTPPQTLATTAFSTAVTTCPSTTPGSFSQETTKGSAFTTESETLPASNHSQRSMMTISTDIAVLRPTGSNPGILPSTSQLTTQKTTLTTSESLQKTTKSHQINSRQTILIIACCVGFVLMVLLFLAFLMSLLNCENSCGSSQSESDCCVAMASSCSAVTKDDSVGGTASTGNLSSSFMEEIQGYDVEFDPPLESKYECPICLMALREAVQTPCGHRFCKACIIKSIRDAGHKCPVDNEILLENQLFPDNFAKREILSLMVKCPNEGCLHKMELRHLEDHQAHCEFALMDCPQCQRPFQKFHINIHILKDCPRRQVSCDNCAASMAFEDKEIHDQNCPLANVICEYCNTILIREQMPNHYDLDCPTAPIPCTFSTFGCHEKMQRNHLARHLQENTQSHMRMLAYFLGRLVPRGRGAAEAATRKQRITETESPYQELQGQRSDVYSDLNTQRPYYK
modifications: CER110 chimeric engulfment receptor
B5: CER112: Tim4 binding and transmembrane domains, truncated Traf6 primary and NFAM1 secondary signaling domains; SEQ ID NO:128 (protein)
chain: MSKGLLLLWLVTELWWLYLTPAASEDTIIGFLGQPVTLPCHYLSWSQSRNSMCWGKGSCPNSKCNAELLRTDGTRIISRKSTKYTLLGKVQFGEVSLTISNTNRGDSGVYCCRIEVPGWFNDVKKNVRLELRRATTTKKPTTTTRPTTTPYVTTTTPELLPTTVMTTSVLPTTTPPQTLATTAFSTAVTTCPSTTPGSFSQETTKGSAFTTESETLPASNHSQRSMMTISTDIAVLRPTGSNPGILPSTSQLTTQKTTLTTSESLQKTTKSHQINSRQTILIIACCVGFVLMVLLFLAFLMSLLNCENSCGSSQSESDCCVAMASSCSAVTKDDSVGGTASTGNLSSSFMEEIQGYDVEFDPPLESKYECPICLMALREAVQTPCGHRFCKACIIKSIRDAGHKCPVDNEILLENQLFPDNFAKREILSLMVKCPNEGCLHKMELRHLEDHQAHCEFALMDCPQCQRPFQKFHINIHILKDCPRRQVSCDNCAASMAFEDKEIHDQNCPLANVICEYCNTILIREQMPNHYDLDCPTAPIPCTFSTFGCHEKMQRNHLARHLQENTQSHMRMLALWNKKRMRGPGKDPTRKCPDPRSASSPKQHPSESVYTALQRRETEVYACIENEDGSSPTAKQSPLSQERPHRFEDDGELNLVYENL
modifications: CER112 chimeric engulfment receptor

How the values were obtained:
[1] = tested on: SCC152 cells; assay: Phagocytic activity of tandem expression cassette transduced CD8+ T cells; format: cell-based, human; settings: for phagocytosis of SCC152 cells: CD8+ T cells, 6 hours, 1:1 ratio; for dependence of engulfment of SCC152 cells on Racl: Racl inhibitor NSC23766 (50 μM), data not shown
Protocol: Phagocytic activity of tandem expression cassette transduced CD8+ T cells was detected by co-culturing tandem expression cassette transduced CD8+ T cells with SCC152 cells for 6 hours at a 1:1 ratio. Phagocytic events were visualized and quantified using KEYENCE BZ-X710 fluorescence microscope, 20X objective and hybrid capture software.

[2] = tested on: H1975 lung adenocarcinoma cells; assay: LDH assay, H1975 cells, 48 hours co-culture with 1 μM Osimeritinib; format: cell-based; settings: E:T 1:1, 48 hours, CD4+ T cells
Source text: CER30 comprises a Tim4 binding domain, Tim4 transmembrane domain, and an engulfment signaling domain comprising a primary engulfment signaling domain comprising a TRAF2 signaling domain. CER30 has a polypeptide sequence as set forth in SEQ ID NO:96. CER110 has a polypeptide sequence of SEQ ID NO:125 and comprises a Tim4 binding domain, Tim4 transmembrane domain, and an engulfment signaling domain comprising a primary engulfment signaling domain comprising a TRAF6 signaling domain and a secondary engulfment signaling domain comprising a DAP12 signaling domain. CER112 has a polypeptide sequence of SEQ ID NO:128 and comprises a Tim4 binding domain, Tim4 transmembrane domain, and an engulfment signaling domain comprising a primary engulfment signaling domain comprising a TRAF6 signaling domain and a secondary engulfment signaling domain comprising a NFAM1 signaling domain. CER127 has a polypeptide sequence of SEQ ID NO:175 and comprises a Tim4 binding domain, Tim4 transmembrane domain, and an engulfment signaling domain comprising a primary engulfment signaling domain comprising a TRAF2 signaling domain and a secondary engulfment signaling domain comprising a TLR2 signaling domain. H1975 cells are more resistant to EGFR inhibitors, so Osimeritinib was used at slightly higher concentration. H1975 lung adenocarcinoma cells harboring an EGFR mutation were co-cultured with CER-expressing or mock-transduced (vector only) CD4+ T cells with 1 μM of Osimeritinib. After 48 hours of co-culture at a 1:1 effector:target cell ratio, T cells were washed away, and the number of viable H1975 cells was quantified using a calorimetric LDH assay (FIG. 57). Cell viability experiments were performed in triplicate and presented as % of control.

Molecule	phagocytosis of SCC152 cells [1]	dependence of engulfment of SCC152 cells on Racl [1]	killing of H1975 cells (LDH) [2]
B1	capable of phagocytosing SCC152 cells	Racl-dependent manner	–
B2	capable of phagocytosing SCC152 cells	Racl-dependent manner	–
B3	–	–	synergistic killing of H1975 lung adenocarcinoma cells upon EGFR inhibition
B4	–	–	synergistic killing of H1975 lung adenocarcinoma cells upon EGFR inhibition
B5	–	–	synergistic killing of H1975 lung adenocarcinoma cells upon EGFR inhibition
